Results taken from patent US8080531B2, “Methods for modulating checkpoint activation through TopBP1” (California Institute of Technology, priority 2006, dated 2011).

How the values were obtained:
Xatr-Xatrip [1] = target: Xatr-Xatrip (Xenopus laevis, UniProt Q9DE14); experiment: Kinase assay of Xatr-Xatrip complexes isolated from Xenopus egg extracts; type: biochemical; design: increase of kinase activity of Xatr; other: Xatr immunoprecipitated from Xatrip-depleted extracts
Source text: (§1) Specifically, Applicants first isolated Xatr from egg extracts by pull-downs with FLAG-tagged Xenopus ATRIP (Xatrip). For these experiments, Applicants used both full-length Xatrip and an N-terminal truncation mutant (ΔN222) that supports normal Xatr-dependent activation of Xchk1 in egg extracts (Kumagai et al., 2004; Kim et al., 2005).
(§2) Applicants eluted the beads with FLAG peptide and mixed the eluates with a His6-tagged version of XtopBP1 that had been purified from baculovirus-infected insect cells (FIG. 1B). Finally, Applicants added ^32P-ATP and PHAS-I, a commonly used model substrate for ATR (Abraham, 2001).
Xatrip-FLAG and XatripΔN222-FLAG (20 ng/μl each) were incubated in interphase extracts containing anti-FLAG M2 antibody beads (Sigma) for 60 min at room temperature. The beads were isolated and washed twice with buffer A (10 mM HEPES-KOH (pH 7.5), 150 mM NaCl, 0.1% CHAPS, and 2.5 mM EGTA) and twice with HEPES-buffered saline (HBS; 10 mM HEPES-KOH (pH 7.5) and 150 mM NaCl). Xatr-Xatrip complexes were eluted in one-tenth the volume of the egg extract in HBS containing 0.1 mg/ml 3×-FLAG peptide (Sigma) for 60 min at 4° C. Eluates (2 μl) were used for kinase assays as described below. […]

Xchk1 [2] = experiment: Checkpoint-dependent phosphorylation of Xchk1 in XtopBP1-depleted egg extracts with aphidicolin and sperm nuclei; type: biochemical, Xenopus; conditions: added back to XtopBP1-depleted extract, aphidicolin
Source text: Applicants proceeded to remove endogenous XtopBP1 from egg extracts by immunodepletion with anti-XtopBP1 antibodies (FIG. 7C). In parallel, Applicants used control antibodies to prepare mock-depleted extract. Next, Applicants added back wild-type His6-XtopBP1 or the His6-XtopBP1-W1138R mutant to aliquots of the XtopBP1-depleted extract. Finally, Applicants added aphidicolin and demembranated Xenopus sperm nuclei to the various extracts in order to create stalled replication forks and then examined phosphorylation of Xchk1 (FIG. 7D).
(§3) Extracts from Xenopus eggs were prepared as described (Kumagai and Dunphy, 2000). A DNA replication checkpoint response was induced by addition of 50 μg/ml aphidicolin into extracts containing demembranated sperm nuclei (3000 per μl) (Kumagai and Dunphy, 2000). To monitor DNA replication, extracts containing 1000 sperm nuclei/μl were incubated with [α-^32P]dATP (Yoo et al., 2004).
Xatr and Xatrip were immunodepleted as described (Kumagai et al., 2004). For immunodepletion of XtopBP1, we incubated 100 μl egg extract twice for 60 min with 10 μl Affiprep protein A beads (BioRad) containing 35 μg anti-XtopBP1 antibodies.

Xatr-Xatrip [3] = experiment: Kinase assay of Xatr-Xatrip complexes isolated from Xenopus egg extracts; type: biochemical; conditions: for activation of Xatr kinase activity toward PHAS-I: isolated Xatr-Xatrip complexes, 32P-ATP, result in words
Source text: as §1, §2
Xatrip-FLAG and XatripΔN222-FLAG (20 ng/μl each) were incubated in interphase extracts containing anti-FLAG M2 antibody beads (Sigma) for 60 min at room temperature. The beads were isolated and washed twice with buffer A (10 mM HEPES-KOH (pH 7.5), 150 mM NaCl, 0.1% CHAPS, and 2.5 mM EGTA) and twice with HEPES-buffered saline (HBS; 10 mM HEPES-KOH (pH 7.5) and 150 mM NaCl). Xatr-Xatrip complexes were eluted in one-tenth the volume of the egg extract in HBS containing 0.1 mg/ml 3×-FLAG peptide (Sigma) for 60 min at 4° C. Eluates (2 μl) were used for kinase assays as described below.
(§4) Samples were incubated in 20 μl kinase buffer (50 mM Tris-HCl (pH 7.5), 10 mM MgCl2, 1 mM dithiothreitol, 100 μM nonradioactive ATP, and 100 μCi/ml [γ-^32P]ATP) containing 12.5 μg/ml PHAS-I or 50 μg/ml GST-Xmcm2 (62-122) for 30 min at room temperature. GST-XtopBP1 (972-1279) was added at a final concentration of 100 μg/ml unless indicated otherwise. In some cases, GST-Xmcm2 (62-122), GST-Xchk1 (306-352), or full-length Xchk1-Myc-His6 were used as substrates with only […] nonradioactive ATP. Reactions were terminated by boiling in gel sample buffer.

human Mcm2 on S108 = experiment: Phosphorylation of Mcm2 on S108 in transfected human 293T cells; type: cell-based; conditions: immunoblotting
Source text: To pursue this issue further, Applicants asked whether the ATR-activating domain of TopBP1 could induce ATR-dependent phosphorylation in human cells. For this purpose, Applicants constructed a version of the enhanced green fluorescent protein (EGFP) containing the SV40 nuclear localization sequence and residues 978-1286 of human TopBP1 (equivalent to residues 972-1279 of XtopBP1). Applicants also produced the W1145R mutant of this plasmid (analogous to the W1138R mutant of XtopBP1). Applicants transfected plasmids encoding these proteins into human 293T cells and performed immunoblotting with anti-phosphopeptide antibodies that detect phosphorylation of human Mcm2 on S108 (which corresponds to S92 of Xmcm2) (Cortez et al., 2004; Yoo et al., 2004).
pEGFP-NLS-TopBP1 (978-1286), which encodes EGFP followed by a nuclear localization sequence (KKKRKV, SEQ ID NO: 11) and amino acids 978-1286 of human TopBP1, was prepared from pEGFP (Clontech) by standard polymerase chain reaction-based methods. Plasmids were transfected into 293T cells with Lipofectamine 2000 (Invitrogen).

human ATR [4] = target: T1, human ATR (Homo sapiens, UniProt Q13535); experiment: Kinase assay of recombinant human FLAG-ATR against S92 of GST-Xmcm2 (62-122); type: biochemical; conditions: wild-type human FLAG-ATR from U2OS nuclear extracts
T1 construct: expressed in transfected cells; host or cells: U2OS GW33 cells (doxycycline-inducible), nuclear extract, anti-FLAG purification
Experimental: (§5) Specifically, Applicants isolated wild-type and kinase-deficient versions of FLAG-tagged human ATR from nuclear extracts of U2OS cells that conditionally express these proteins (FIG. 5C). The recombinant ATR proteins were purified with anti-FLAG magnetic beads under conditions that preserve the binding of endogenous ATRIP (Ünsal-Kacmaz and Sancar, 2004). Next, Applicants incubated both the wild-type and kinase-deficient FLAG-ATR preparations in the absence or presence of GST-XtopBP1 (972-1279), and measured kinase activity against S92 of the GST-Xmcm2 (62-122) peptide.
as §4
(§6) U2OS cells conditionally expressing wild-type (GW33) or kinase-deficient (GK41) human FLAG-ATR were cultured as described (Nghiem et al., 2001). Cells were induced with 1 μg/ml doxycycline for 48 hr. Nuclear extracts were prepared as described (Dignam et al., 1983) except that nuclei were lysed by brief sonication and the concentration of NaCl in the nuclear isolation buffer was reduced to 350 mM in order to preserve the binding of endogenous ATRIP to recombinant ATR. FLAG-ATR proteins were isolated by an overnight incubation with anti-FLAG antibodies bound to protein G-magnetic beads (Dynal) and eluted with 3×-FLAG peptide.

human ATR [5] = experiment: as above; type: biochemical; conditions: kinase-deficient human FLAG-ATR
Experimental: as §5, §4, §6

Xatr-Xatrip [6] = experiment: Glutathione bead pull-down of Xatr and Xatrip from egg extracts; type: binding, Xenopus; conditions: egg extracts, immunoblotting
Experimental: Specifically, Applicants incubated glutathione beads containing GST-XtopBP1 (972-1279) in egg extracts, reisolated the beads, and performed immunoblotting for both Xatr and Xatrip. […] In addition, in other experiments, there was no binding of Xatr or Xatrip to beads containing GST fusions of the 1-348, 333-646, or 623-984 segments from XtopBP1 (data not shown).
Applicants also tested to see if the association of XtopBP1 with Xatr depends upon Xatrip. For this experiment, Applicants removed endogenous Xatrip from egg extracts by immunodepletion with anti-Xatrip antibodies. As described previously, this procedure leaves behind approximately 30% of the endogenous Xatr, the fraction that is not in a complex with Xatrip (Kumagai et al., 2004). Next, Applicants added GST-XtopBP1 (972-1279) to the Xatrip-depleted extracts and to mock-depleted extracts that had been prepared in parallel.

Xchk1 [7] = experiment: Ectopic phosphorylation of 35S-Xchk1 in Xenopus egg extracts without checkpoint-inducing DNA; type: biochemical; conditions: 35S-Xchk1, tautomycin, no checkpoint-inducing DNA template
Experimental: Because the GST-XtopBP1 (972-1279) fragment could activate Xatr in vitro without the inclusion of DNA, Applicants reasoned that ectopic addition of this fragment to Xenopus egg extracts might also be able to trigger the Xatr-dependent phosphorylation of Xchk1 even in the absence of a checkpoint-inducing DNA template.
as §3

Sequence of Xatr-Xatrip (Q9DE14 whole entry, the tested form may be a part): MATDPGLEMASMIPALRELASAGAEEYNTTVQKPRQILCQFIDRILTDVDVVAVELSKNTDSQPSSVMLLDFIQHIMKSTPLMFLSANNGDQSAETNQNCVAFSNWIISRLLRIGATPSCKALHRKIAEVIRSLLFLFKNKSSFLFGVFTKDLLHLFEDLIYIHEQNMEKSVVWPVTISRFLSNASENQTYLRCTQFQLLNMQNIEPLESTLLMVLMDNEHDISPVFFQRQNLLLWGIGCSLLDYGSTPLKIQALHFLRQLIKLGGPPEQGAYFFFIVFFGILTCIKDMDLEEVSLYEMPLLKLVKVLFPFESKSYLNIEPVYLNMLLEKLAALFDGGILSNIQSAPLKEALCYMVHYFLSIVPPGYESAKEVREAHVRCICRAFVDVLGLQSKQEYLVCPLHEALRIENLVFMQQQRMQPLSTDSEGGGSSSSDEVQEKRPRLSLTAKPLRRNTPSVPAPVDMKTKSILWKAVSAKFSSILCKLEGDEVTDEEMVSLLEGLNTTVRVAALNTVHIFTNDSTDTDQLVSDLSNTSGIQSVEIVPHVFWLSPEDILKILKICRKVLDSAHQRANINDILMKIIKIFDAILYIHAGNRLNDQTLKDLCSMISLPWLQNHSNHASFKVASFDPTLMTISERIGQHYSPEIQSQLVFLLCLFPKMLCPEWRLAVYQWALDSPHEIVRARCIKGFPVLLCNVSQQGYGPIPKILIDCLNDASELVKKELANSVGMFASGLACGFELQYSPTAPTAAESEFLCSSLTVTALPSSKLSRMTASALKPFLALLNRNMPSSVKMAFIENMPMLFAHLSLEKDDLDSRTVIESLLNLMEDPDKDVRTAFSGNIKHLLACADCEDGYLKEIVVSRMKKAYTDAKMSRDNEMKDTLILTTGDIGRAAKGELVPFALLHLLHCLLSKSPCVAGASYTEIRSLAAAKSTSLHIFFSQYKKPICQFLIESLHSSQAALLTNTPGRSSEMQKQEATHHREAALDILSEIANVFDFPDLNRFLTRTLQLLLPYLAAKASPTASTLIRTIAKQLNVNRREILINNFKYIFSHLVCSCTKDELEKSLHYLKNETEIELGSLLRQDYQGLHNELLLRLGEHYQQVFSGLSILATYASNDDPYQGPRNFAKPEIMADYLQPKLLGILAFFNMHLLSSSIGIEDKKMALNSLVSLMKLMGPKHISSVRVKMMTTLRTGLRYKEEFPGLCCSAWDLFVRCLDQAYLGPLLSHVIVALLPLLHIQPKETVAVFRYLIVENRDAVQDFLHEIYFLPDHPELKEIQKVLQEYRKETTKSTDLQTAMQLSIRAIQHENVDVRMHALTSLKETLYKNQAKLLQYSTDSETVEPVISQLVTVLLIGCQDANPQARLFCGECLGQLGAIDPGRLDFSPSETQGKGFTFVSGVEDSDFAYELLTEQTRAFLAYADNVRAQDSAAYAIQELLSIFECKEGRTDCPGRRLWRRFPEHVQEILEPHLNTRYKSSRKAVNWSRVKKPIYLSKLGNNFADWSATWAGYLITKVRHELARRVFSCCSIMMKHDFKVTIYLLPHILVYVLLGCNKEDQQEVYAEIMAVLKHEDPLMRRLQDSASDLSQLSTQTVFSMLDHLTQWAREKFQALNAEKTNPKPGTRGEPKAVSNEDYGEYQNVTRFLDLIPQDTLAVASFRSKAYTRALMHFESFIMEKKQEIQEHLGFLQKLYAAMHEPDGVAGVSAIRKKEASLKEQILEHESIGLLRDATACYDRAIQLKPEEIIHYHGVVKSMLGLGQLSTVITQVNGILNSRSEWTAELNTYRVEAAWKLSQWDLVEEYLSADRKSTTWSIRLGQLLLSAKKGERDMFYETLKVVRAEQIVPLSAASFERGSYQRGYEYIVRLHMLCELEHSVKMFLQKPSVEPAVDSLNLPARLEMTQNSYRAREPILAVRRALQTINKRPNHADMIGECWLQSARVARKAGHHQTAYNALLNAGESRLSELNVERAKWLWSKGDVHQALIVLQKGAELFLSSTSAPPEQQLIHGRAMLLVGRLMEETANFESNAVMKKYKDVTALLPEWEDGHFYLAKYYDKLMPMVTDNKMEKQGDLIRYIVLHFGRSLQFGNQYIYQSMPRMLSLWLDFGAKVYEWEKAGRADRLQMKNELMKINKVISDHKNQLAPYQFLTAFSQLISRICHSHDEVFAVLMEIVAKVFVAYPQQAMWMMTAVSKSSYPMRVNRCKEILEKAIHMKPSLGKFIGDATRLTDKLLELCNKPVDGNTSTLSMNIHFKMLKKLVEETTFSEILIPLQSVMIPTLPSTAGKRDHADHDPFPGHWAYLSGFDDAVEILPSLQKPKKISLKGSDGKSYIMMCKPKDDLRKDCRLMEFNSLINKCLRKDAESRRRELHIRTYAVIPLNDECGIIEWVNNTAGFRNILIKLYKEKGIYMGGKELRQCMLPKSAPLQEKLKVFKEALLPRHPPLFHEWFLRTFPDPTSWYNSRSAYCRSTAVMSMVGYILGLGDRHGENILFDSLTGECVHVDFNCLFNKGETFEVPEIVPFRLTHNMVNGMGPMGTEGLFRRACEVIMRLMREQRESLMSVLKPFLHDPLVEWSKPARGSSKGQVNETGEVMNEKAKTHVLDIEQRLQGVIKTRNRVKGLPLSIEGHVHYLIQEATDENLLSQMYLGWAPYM
Sequence of Xatr-Xatrip (Xenopus laevis, UniProt Q9DE14) (Q9DE14 whole entry, the tested form may be a part): as above

In the case of Cn1c(=O)c2c(ncn2C)n(C)c1=O [caffeine, reference compound], the IC50 (Xatr-Xatrip [1]; Xatr-XatripΔN222 activated by His6-XtopBP1, PHAS-I substrate, 0.04-5 mM caffeine, read-out: half-maximal inhibition of the XtopBP1-activated form of Xatr) is reported as roughly 400 µM.

With “XtopBP1: His6-tagged full-length Xenopus TopBP1 purified from baculovirus-infected insect cells” the “rescue of phosphorylation of Xchk1” value (Xchk1 [2]) was “rescue the phosphorylation of Xchk1 fully”, the “half-maximal induction of kinase activity” value (Xatr-Xatrip [3]; Xatr-XatripΔN222, PHAS-I substrate, dose-response 0.5-30 μg/ml XtopBP1) was 10 to 15 µg/mL and the “induced kinase activity toward PHAS-I” value (Xatr-Xatrip [3]; XatripΔN222-FLAG preparation from Xatr-depleted extracts) was “could not elicit any kinase activity”. The “induced kinase activity toward PHAS-I” value (Xatr-Xatrip [3]; XatripΔN222-FLAG preparation from mock-depleted extracts) was “induced strong kinase activity”, the “activation of Xatr kinase activity toward PHAS-I” value (Xatr-Xatrip [3]) was “very large increase” and the “kinase activity toward PHAS-I of the preparation alone” value (Xatr-Xatrip [3]; recombinant XtopBP1 without Xatr-Xatrip) was “negligible kinase activity”. The “increase of kinase activity of Xatr” value (Xatr-Xatrip [1]; Xatr immunoprecipitated from Xatrip-depleted extracts) was “could not significantly increase”.

B1: W1145R mutant: W1145R mutant of EGFP-NLS-TopBP1 (978-1286), analogous to the W1138R mutant of XtopBP1 (protein)
chain: KKKRKVAQECKHLPESLYPHTYNPKMSLDISAVQDGRLCNSRLLSAVSSTKDDEPDPLILEENDVDNMATNNKESAPSNGSGKNDSKGVLTQTLEMRENFQKQLQEIMSATSIVKPQGQRTSLSRSGCNSASSTPDSTRSARSGRSRVLEALRQSRQTVPDVNTEPSQNEQIIRDDPTAREERARLASNLQWPSCPTQYSELQVDIQNLEDSPFQKPLHDSEIAKQAVCDPGNIRVTEAPKHPISEELETPIKDSHLIPTPQAPSIAFPLANPPVAPHPREKIITIEETHEELKKQYIFQLSSLNPQERIDYCHL
modifications: left off: large carriers
notes: W1145R mutant of EGFP-NLS-TopBP1 (978-1286), analogous to the W1138R mutant of XtopBP1
With B1 the “phosphorylation of Mcm2 on S108” value (human Mcm2 on S108) was “no effect”.

B2: W1138R mutant of GST-XtopBP1 (972-1279): point mutant of the fragment in which the tryptophan in the WDDP motif was changed to arginine (protein)
chain: EQQKRVPEALYPHTYNPKMSLDISAVQDGSYTASKFSADTSLQQDENSELQLQQNNKFGETSDDQVKKAAGDGNPQNPSKDVKGALTQTLEMRENFQRQLQEFMSATSVVKPRGSVGRAGFDNSPCTPEGARSTRNGRSRVLEALRQSRQAMTDLNTEPSQNEQIIRDDPTAREERAKLVSNLQWPDSPSQYSEQLQHNMNDAGGNYTPAKESLTDSEIAELEACEFEPKSAMRTPVIENNLQSPTKPDHLTPTPQAPSIAFPLANPPVAPQPREKPVQPFSKEETLKERRFQLSSLDPQERIDYSQL
modifications: left off: a dimerising Fc or GST; small tags and cut ends
notes: point mutant of the fragment in which the tryptophan in the WDDP motif was changed to arginine
B2 was tested, and the “kinase activity of wild-type FLAG-ATR” value (human ATR [4]) was “did not induce any activation”, the “activity of kinase-deficient FLAG-ATR” value (human ATR [5]) was “neither the intact nor W1138R mutant form of GST-XtopBP1 (972-1279) had any effect” and the “binding of Xatr and Xatrip to glutathione beads” value (Xatr-Xatrip [6]) was “retains significant ability to bind Xatr-Xatrip”. For the same molecule, the “phosphorylation of Xchk1 in egg extracts” value (Xchk1 [7]) was “none of the ΔRQLQ, ΔWDDP, or W1138R mutants of the 972-1279 fragment could induce ectopic activation” and the “activation of Xatr kinase activity toward PHAS-I” value (Xatr-Xatrip [3]) was “totally lost its capacity”.
